# Data published in US20020068814A1.
# Read-outs that look alike come from different tables or passages of the source. No end group written: not given here.
# Tests used:
# [1] = molecular target: CGRP receptor of pig coronary artery (pig); experiment: cell-based or functional assay
# [2] = molecular target: CGRP receptor of pig coronary artery (pig); experiment: displacement of 125I-[His10]-h-αCGRP from pig coronary artery membranes
# [3] = molecular target: CGRP receptor of pig coronary artery (pig); experiment: as above; remark: listed apart in the source
Molecule,IC50 [2],IC50 [3],also measured
h-α-CGRP (8-37) (peptide),–,–,KB from inhibition of h-α-CGRP-induced relaxation of pig coronary artery rings (Schild analysis) [1]: 970 nM
N-α-benzyl-h-α-CGRP (8-37) (peptide),1580 pM,–,–
N-α-benzoyl-h-α-CGRP (8-37) (peptide),270 pM,–,–
"VTHRLAGLLSRSGGMVKSNFVPTNVGSKAF (peptide, UniProt P10092 89-118, looked up, Calcitonin gene-related peptide 2 N-alpha-benzyl) [N-α-benzyl-h-β-CGRP (8-37)]",–,3620 pM,–

# The next lines start with results.
IC50 [2],IC50 [3],Molecule,also measured
220 pM,–,dibenzyl-h-α-CGRP(8-37) (peptide),–
–,630 pM,"VTHRLAGLLSRSGGMVKSNFVPTNVGSKAF (peptide, UniProt P10092 89-118, looked up, Calcitonin gene-related peptide 2 N-alpha-benzoyl) [N-α-benzoyl-h-β-CGRP (8-37)]",–
–,730 pM,"VTHRLAGLLSRSGGMVKSNFVPTNVGSKAF (peptide, UniProt P10092 89-118, looked up, Calcitonin gene-related peptide 2 N,N-dibenzyl) [dibenzyl-h-β-CGRP(8-37)]",–
–,20600 pM,VTHRLAGLLSRSGGMVKSNFVPTNVGSKAF (ends and bridges not checked) [h-β-CGRP (8-37)],–
